One test concerns HeLa cells. The test is described as follows: Confocal imaging of Smad2 localization. Type of test: cell-based. The method, then: Supplemental Fig. S1. Confocal images of endogenous Smad2 and exogenously expressed EGFP-Smad2 in HeLa cells before (A) and 10 min after (B) TGF-β stimulation.
Endogenous Smad2 images were obtained by immunostaining using the Smad2-specific antibody. 10 ng/ml TGF-β was used for stimulation. Scale bars indicate 10 μm.
Supplemental Fig. S2. Suppression of endogenous Smad2 expression in HeLa cells by siRNA.
Western blot analysis showing that expression of endogenous Smad2 in HeLa cells was successfully suppressed by siRNA. 30 nM siRNA-3 was routinely used for knockdown experiments. For re-introduction of mouse Smad2 to these cells, see Fig. 5A. Glyceraldehyde 3-phosphate dehydrogenase (GAPDH) was used as a gel loading control. […]

Test [1] is described as follows: SPR membrane binding to POPC/POPS/PI(3,4,5)P3 vesicles. The following applies: POPC/POPS/PI(3,4,5)P3 (or PIP3) (77:20:3), 1 μM Smad2. As for the experimental part:
(§1) Figure 1 Membrane-binding properties of Smad2 FL protein and MH2 domain determined by SPR analysis.A, PtdInsP selectivity of Smad2-FL determined using POPC/POPS/PtdInsP (77:20:3 in mole ratio) LUVs coated on the L1 sensor chip. The protein concentration was 100 nM. PIP3 indicates PI(3,4,5)P3. B, determination of Kd for binding of Smad2 FL to different LUVs. The protein concentration was varied from 0 to 500 nM. C, PI(4,5)P2 concentration dependence of membrane binding of Smad2-FL determined using POPC/POPS/PI(4,5)P2 (77-x:20:x, x = 0–5 mol%) LUVs. The protein concentration was 100 nM. D, PtdInsP selectivity of the Smad2 MH2 domain determined using POPC/POPS/PtdInsP (77:20:3 in mole ratio) LUVs. […] RUmax values determined for different vesicles at 1 μM Smad2 were: 280 ± 20 for POPC/POPS/PI(4,5)P2 (77:20:3), 370 ± 10 for POPC/POPS/PI(3,4)P2 (77:20:3), 400 ± 15 for POPC/POPS/PI(3,4,5)P3 (or PIP3) (77:20:3), 400 ± 20 for POPC/POPS/PI(3)P (77:20:3), and 380 ± 20 for POPC/POPS (80:20). […]
(§2) All SPR measurements were performed at 23 °C in 20 mM Tris, pH 7.4, containing 0.16 M NaCl using a lipid-coated L1 chip in the BIACORE X-100 system (GE Healthcare) as described previously ([19], [38]). […] Sensorgrams were collected for both membrane association and dissociation but the only the association phases were further analyzed because the dissociation phases were often too slow for analysis. […]

Test [2] can be described thus: SPR membrane binding to POPC/POPS/PI(3,4)P2 vesicles. As to conditions: POPC/POPS/PI(3,4)P2 (77:20:3), 1 μM Smad2. As for the experimental part: as §1, §2

B1: EGFP-Smad2 WT: mouse EGFP-Smad2 wild type transfected into HeLa cells (protein, UniProt Q62432 2-467, looked up)
Mothers against …: SSILPFTPPVVKRLLGWKKSAGGSGGAGGGEQNGQEEKWCEKAVKSLVKKLKKTGRLDELEKAITTQNCNTKCVTIPSTCSEIWGLSTANTVDQWDTTGLYSFSEQTRSLDGRLQVSHRKGLPHVIYCRLWRWPDLHSHHELKAIENCEYAFNLKKDEVCVNPYHYQRVETPVLPPVLVPRHTEILTELPPLDDYTHSIPENTNFPAGIEPQSNYIPETPPPGYISEDGETSDQQLNQSMDTGSPAELSPTTLSPVNHSLDLQPVTYSEPAFWCSIAYYELNQRVGETFHASQPSLTVDGFTDPSNSERFCLGLLSNVNRNATVEMTRRHIGRGVRLYYIGGEVFAECLSDSAIFVQSPNCNQRYGWHPATVCKIPPGCNLKIFNNQEFAALLAQSVNQGFEAVYQLTRMCTIRMSFVKGWGAEYRRQTVTSTPCWIELHLNGPLQWLDKVLTQMGSPSVRCSSMS
modifications: EGFP fusion
notes: mouse EGFP-Smad2 wild type transfected into HeLa cells
Regarding B1, the “localization in unstimulated cells” value with HeLa cells is listed as “mostly distributed in the cytoplasm with little prelocalization to the PM”.

B2: Smad2 WT: bacterially expressed full-length Smad2 wild-type (protein)
chain: MSSILPFTPPVVKRLLGWKKSAGGSGGAGGGEQNGQEEKWCEKAVKSLVKKLKKTGRLDELEKAITTQNCNTKCVTIPSTCSEIWGLSTANTVDQWDTTGLYSFSEQTRSLDGRLQVSHRKGLPHVIYCRLWRWPDLHSHHELKAIENCEYAFNLKKDEVCVNPYHYQRVETPVLPPVLVPRHTEILTELPPLDDYTHSIPENTNFPAGIEPQSNYIPETPPPGYISEDGETSDQQLNQSMDTGSPAELSPTTLSPVNHSLDLQPVTYSEPAFWCSIAYYELNQRVGETFHASQPSLTVDGFTDPSNSERFCLGLLSNVNRNATVEMTRRHIGRGVRLYYIGGEVFAECLSDSAIFVQSPNCNQRYGWHPATVCKIPPGCNLKIFNNQEFAALLAQSVNQGFEAVYQLTRMCTIRMSFVKGWGAEYRRQTVTSTPCWIELHLNGPLQWLDKVLTQMGSPSVRCSSMS
modifications: left off: His6, N-terminal, state not stated
notes: bacterially expressed full-length Smad2 wild-type
As for B2, the RUmax in test [1] is 400 ± 15; in test [2] it was 370 ± 10.

The values above are taken from paper PMC8567202, “Phosphoinositide-binding activity of Smad2 is essential for its function in TGF-β signaling” (The Journal of Biological Chemistry, 2021).
